Legend:
human CTLA-4 = human CTLA-4 (human); assay: flow cytometry, CHO/CTLA-4 cells, 100 nM, anti-Flag
human PD-1 = human PD-1 (human, UniProt Q15116); assay: flow cytometry, CHO/PD-1 cells, 100 nM, anti-Flag
human CD28 = human CD28 (human, UniProt P10747); assay: flow cytometry, Jurkat cells (endogenous CD28), 100 nM, anti-Flag
human TIGIT = target: T1, human TIGIT (human, UniProt Q495A1); assay: flow cytometry, Jurkat/IL-2/TIGIT cells
T1 sequence: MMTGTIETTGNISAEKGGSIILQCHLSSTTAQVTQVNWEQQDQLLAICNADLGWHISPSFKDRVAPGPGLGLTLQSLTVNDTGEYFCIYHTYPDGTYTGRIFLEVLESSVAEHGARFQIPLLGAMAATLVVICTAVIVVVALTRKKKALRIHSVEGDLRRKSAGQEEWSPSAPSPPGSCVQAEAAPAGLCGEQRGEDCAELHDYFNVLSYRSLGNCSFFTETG

CD2 [1] = target: CD2 (Homo sapiens (Human), UniProt P06729); assay: flow cytometry, CHO-CD2 cells
CD80 = target: T2, CD80 (human); assay: flow cytometry, CHO-CD80 cells
T2 chain: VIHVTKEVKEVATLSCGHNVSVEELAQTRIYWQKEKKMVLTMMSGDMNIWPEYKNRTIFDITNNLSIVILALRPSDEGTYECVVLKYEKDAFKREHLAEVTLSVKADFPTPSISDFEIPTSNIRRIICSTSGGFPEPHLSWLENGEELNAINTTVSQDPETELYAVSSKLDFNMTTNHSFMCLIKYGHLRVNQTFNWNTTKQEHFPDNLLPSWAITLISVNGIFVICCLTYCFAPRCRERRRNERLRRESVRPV

CD2 [2] = target: CD2 (human, UniProt P06729); assay: cell-based or functional assay
TIGIT = target: T3, TIGIT (human, UniProt Q495A1); assay: cell-based or functional assay
T3 sequence: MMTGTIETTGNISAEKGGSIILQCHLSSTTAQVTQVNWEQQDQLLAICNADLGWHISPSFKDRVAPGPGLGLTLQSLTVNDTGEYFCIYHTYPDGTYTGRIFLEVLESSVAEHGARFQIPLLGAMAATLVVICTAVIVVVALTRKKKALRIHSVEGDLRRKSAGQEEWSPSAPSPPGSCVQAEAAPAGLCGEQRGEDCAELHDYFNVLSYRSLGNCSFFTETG

PD-1 = PD-1 (human, UniProt Q15116); assay: cell-based or functional assay
human CD86 = target: T4, human CD86 (human); assay: cell-based or functional assay
T4 chain: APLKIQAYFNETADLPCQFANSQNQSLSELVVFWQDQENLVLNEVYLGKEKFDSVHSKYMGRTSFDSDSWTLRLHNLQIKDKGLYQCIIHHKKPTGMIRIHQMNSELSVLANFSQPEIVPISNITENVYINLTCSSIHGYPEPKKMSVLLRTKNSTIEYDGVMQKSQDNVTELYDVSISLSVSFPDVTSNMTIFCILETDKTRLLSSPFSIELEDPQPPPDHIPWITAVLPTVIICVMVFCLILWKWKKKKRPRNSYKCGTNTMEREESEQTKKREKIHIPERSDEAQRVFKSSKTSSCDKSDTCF

Chain of human CTLA-4 (human) (chain, as listed by the source): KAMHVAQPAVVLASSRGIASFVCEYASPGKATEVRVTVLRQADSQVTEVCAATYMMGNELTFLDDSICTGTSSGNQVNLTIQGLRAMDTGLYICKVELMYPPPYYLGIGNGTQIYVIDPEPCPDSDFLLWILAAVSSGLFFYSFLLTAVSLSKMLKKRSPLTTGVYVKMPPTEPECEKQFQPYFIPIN

B1: PD-L2 1417-CD80 2616 (other)
chain: LFTVTVPKELYIIEQGSNVTLECNFDTGSHVNLGAITASLQKVENDASPHRERATLLEEQLPLGRALFHIPQVQVRDEGQYRCIIIYGDAWDYKYLTLKVKAGSGGSGGGGSGGGGSVIHVTKEVKEVATLSCGHNVSLEELAQTRIYWQKGKKMVLTMMSGDMNIWPEYKNRTIFDITNNLSIVILDPRPSDEGTYECVVLKYEKDAFKREHLAEVDYKDDDDKHHHHHH
- MFI (human CTLA-4): 79.3
- MFI (human PD-1): 20000
- MFI (human CD28): 89.2

B2: CD80 2616-PD-L2 1417 (other)
chain: VIHVTKEVKEVATLSCGHNVSLEELAQTRIYWQKGKKMVLTMMSGDMNIWPEYKNRTIFDITNNLSIVILDPRPSDEGTYECVVLKYEKDAFKREHLAEVGSGGSGGGGSGGGGSLFTVTVPKELYIIEQGSNVTLECNFDTGSHVNLGAITASLQKVENDASPHRERATLLEEQLPLGRALFHIPQVQVRDEGQYRCIIIYGDAWDYKYLTLKVKADYKDDDDKHHHHHH
- MFI (human CTLA-4): 82.5
- MFI (human PD-1): 1520
- MFI (human CD28): 92.2

B3: PD-L2 1417-CD80 2617 (other)
chain: LFTVTVPKELYIIEQGSNVTLECNFDTGSHVNLGAITASLQKVENDASPHRERATLLEEQLPLGRALFHIPQVQVRDEGQYRCIIIYGDAWDYKYLTLKVKAGSGGSGGGGSGGGGSVIHVTKEVKEVATLSCGHNVSVEELAQTRIYWQKGKKMVLTMMSGDMNIWPEYENRTIFDITNNLSIVILDPRPSDEGTYECVVLKYEKDAFKREHLAEVDYKDDDDKHHHHHH
- MFI (human CTLA-4): 85
- MFI (human PD-1): 13700
- MFI (human CD28): 94.2

B4: CD155 665-CD58 3650-Fc (Fc fusion)
chain: WPPPGTGDVVVQAPTQVSGFLGDSVTLPCYLQVPNMEVTHVSQLTWARHGESGSMAVFHQTQGPWYAESKRLEFVAARLGAELRNASLRVFGLRAEDEGNYTCQFVTFPQRSRSVDIWLRVLGGGGSGGGGSGGGGSSQQIYGVVYGNVTFHVPSNVPLKEVLWKKQKDKVAELENSEFRAFSSFKNRVYLDTVSGSLTIYNLTSSDEDEYEMESPNITDTMKFFLYVLESGSGGGGSEPKSSDKTHTCPPCPAPEAEGAPSVFLFPPKPKDTLMISRTPEVTCVVVDVSHEDPEVKFNWYVDGVEVHNAKTKPREEQYNSTYRVVSVLTVLHQDWLNGKEYKCKVSNKALPAPIEKTISKAKGQPREPQVYTLPPSRDELTKNQVSLTCLVKGFYPSDIAVEWESNGQPENNYKTTPPVLDSDGSFFLYSKLTVDKSRWQQGNVFSCSVMHEALHNHYTQKSLSLSPG
- EC50 (human TIGIT): 733 pM
- EC50 (CD2 [1]): 845 pM

B5: CD58 3650-CD155 665-Fc (Fc fusion)
chain: SQQIYGVVYGNVTFHVPSNVPLKEVLWKKQKDKVAELENSEFRAFSSFKNRVYLDTVSGSLTIYNLTSSDEDEYEMESPNITDTMKFFLYVLESGGGGSGGGGSGGGGSWPPPGTGDVVVQAPTQVSGFLGDSVTLPCYLQVPNMEVTHVSQLTWARHGESGSMAVFHQTQGPWYAESKRLEFVAARLGAELRNASLRVFGLRAEDEGNYTCQFVTFPQRSRSVDIWLRVLGSGGGGSEPKSSDKTHTCPPCPAPEAEGAPSVFLFPPKPKDTLMISRTPEVTCVVVDVSHEDPEVKFNWYVDGVEVHNAKTKPREEQYNSTYRVVSVLTVLHQDWLNGKEYKCKVSNKALPAPIEKTISKAKGQPREPQVYTLPPSRDELTKNQVSLTCLVKGFYPSDIAVEWESNGQPENNYKTTPPVLDSDGSFFLYSKLTVDKSRWQQGNVFSCSVMHEALHNHYTQKSLSLSPG
- EC50 (human TIGIT): 1000 pM
- EC50 (CD2 [1]): 935 pM

B6: CTLA-4 3060-CD155 665-Fc (Fc fusion)
chain: KAMHVAQPAVVFASSHGIASFVCEYASPWKATEVRVTVLRQADSQVTEVCAATYMTGNELTFLDDSICTGTSSGNQVNLTIQGLRAMDTGLYICKVEQMYPPPYLLGIGNGTQIYVIDPEPCPDSDGGGGSGGGGSGGGGSWPPPGTGDVVVQAPTQVSGFLGDSVTLPCYLQVPNMEVTHVSQLTWARHGESGSMAVFHQTQGPWYAESKRLEFVAARLGAELRNASLRVFGLRAEDEGNYTCQFVTFPQRSRSVDIWLRVLGSGGGGSEPKSSDKTHTCPPCPAPEAEGAPSVFLFPPKPKDTLMISRTPEVTCVVVDVSHEDPEVKFNWYVDGVEVHNAKTKPREEQYNSTYRVVSVLTVLHQDWLNGKEYKCKVSNKALPAPIEKTISKAKGQPREPQVYTLPPSRDELTKNQVSLTCLVKGFYPSDIAVEWESNGQPENNYKTTPPVLDSDGSFFLYSKLTVDKSRWQQGNVFSCSVMHEALHNHYTQKSLSLSPG
- EC50 (CD80): 1800 pM
- EC50 (human TIGIT): 3400 pM

B7: CD155 665-CTLA-4 3037-Fc (Fc fusion)
chain: WPPPGTGDVVVQAPTQVSGFLGDSVTLPCYLQVPNMEVTHVSQLTWARHGESGSMAVFHQTQGPWYAESKRLEFVAARLGAELRNASLRVFGLRAEDEGNYTCQFVTFPQRSRSVDIWLRVLGGGGSGGGGSGGGGSKAMHVAQPAVVFASSHGIASFVCEYASPWKATEVRVTVLRQADSQVTEVCAATYMTGNELTFLDDSICTGTSSGNQVNLTIQGLRAMDTGLYICKVEQMYPPPYLLGIGNGTQIYVIDPEPCPDSDGSGGGGSEPKSSDKTHTCPPCPAPEAEGAPSVFLFPPKPKDTLMISRTPEVTCVVVDVSHEDPEVKFNWYVDGVEVHNAKTKPREEQYNSTYRVVSVLTVLHQDWLNGKEYKCKVSNKALPAPIEKTISKAKGQPREPQVYTLPPSRDELTKNQVSLTCLVKGFYPSDIAVEWESNGQPENNYKTTPPVLDSDGSFFLYSKLTVDKSRWQQGNVFSCSVMHEALHNHYTQKSLSLSPG
- EC50 (CD80): 4100 pM
- EC50 (human TIGIT): 600 pM

B8: CD155 665-CD58 3650-Fc (Fc fusion)
chain: WPPPGTGDVVVQAPTQVSGFLGDSVTLPCYLQVPNMEVTHVSQLTWARHGESGSMAVFHQTQGPWYAESKRLEFVAARLGAELRNASLRVFGLRAEDEGNYTCQFVTFPQRSRSVDIWLRVLGGGGSGGGGSGGGGSSQQIYGVVYGNVTFHVPSNVPLKEVLWKKQKDKVAELENSEFRAFSSFKNRVYLDTVSGSLTIYNLTSSDEDEYEMESPNITDTMKFFLYVLESGSGGGGSEPKSSDKTHTCPPCPAPEAEGAPSVFLFPPKPKDTLMISRTPEVTCVVVDVSHEDPEVKFNWYVDGVEVHNAKTKPREEQYNSTYRVVSVLTVLHQDWLNGKEYKCKVSNKALPAPIEKTISKAKGQPREPQVYTLPPSRDELTKNQVSLTCLVKGFYPSDIAVEWESNGQPENNYKTTPPVLDSDGSFFLYSKLTVDKSRWQQGNVFSCSVMHEALHNHYTQKSLSLSPG
- 100 nM IFN-gamma (pg/mL), SEB assay (CD2 [2]): 5850 pg/mL
- 100 nM IFN-gamma (pg/mL), SEB assay (TIGIT): 5850 pg/mL

B9: CD58 3650-CD155 665-Fc (Fc fusion)
chain: SQQIYGVVYGNVTFHVPSNVPLKEVLWKKQKDKVAELENSEFRAFSSFKNRVYLDTVSGSLTIYNLTSSDEDEYEMESPNITDTMKFFLYVLESGGGGSGGGGSGGGGSWPPPGTGDVVVQAPTQVSGFLGDSVTLPCYLQVPNMEVTHVSQLTWARHGESGSMAVFHQTQGPWYAESKRLEFVAARLGAELRNASLRVFGLRAEDEGNYTCQFVTFPQRSRSVDIWLRVLGSGGGGSEPKSSDKTHTCPPCPAPEAEGAPSVFLFPPKPKDTLMISRTPEVTCVVVDVSHEDPEVKFNWYVDGVEVHNAKTKPREEQYNSTYRVVSVLTVLHQDWLNGKEYKCKVSNKALPAPIEKTISKAKGQPREPQVYTLPPSRDELTKNQVSLTCLVKGFYPSDIAVEWESNGQPENNYKTTPPVLDSDGSFFLYSKLTVDKSRWQQGNVFSCSVMHEALHNHYTQKSLSLSPG
- 100 nM IFN-gamma (pg/mL), SEB assay (CD2 [2]): 6490 pg/mL
- 100 nM IFN-gamma (pg/mL), SEB assay (TIGIT): 6490 pg/mL

B10: PD-L1 303-CD155 665-CTLA-4 3037-Fc (Fc fusion)
chain: FTVTVPKDLYVVEYGSNMTIECKFPVEKQLDLAALIVYWEMEGKDIIQFVHGEEDQKAQHSSYRQRARLLKDQLSLGNAALQITDVKLQDAGVYRCMISYGGGADYKRITVKVNAGGGGSGGGGSGGGGSWPPPGTGDVVVQAPTQVSGFLGDSVTLPCYLQVPNMEVTHVSQLTWARHGESGSMAVFHQTQGPWYAESKRLEFVAARLGAELRNASLRVFGLRAEDEGNYTCQFVTFPQRSRSVDIWLRVLGGGGSGGGGSGGGGSKAMHVAQPAVVFASSHGIASFVCEYASPWKATEVRVTVLRQADSQVTEVCAATYMTGNELTFLDDSICTGTSSGNQVNLTIQGLRAMDTGLYICKVEQMYPPPYLLGIGNGTQIYVIDPEPCPDSDGSGGGGSEPKSSDKTHTCPPCPAPEAEGAPSVFLFPPKPKDTLMISRTPEVTCVVVDVSHEDPEVKFNWYVDGVEVHNAKTKPREEQYNSTYRVVSVLTVLHQDWLNGKEYKCKVSNKALPAPIEKTISKAKGQPREPQVYTLPPSRDELTKNQVSLTCLVKGFYPSDIAVEWESNGQPENNYKTTPPVLDSDGSFFLYSKLTVDKSRWQQGNVFSCSVMHEALHNHYTQKSLSLSPG
- 100 nM IFN-gamma (pg/mL), SEB assay (PD-1): 7350 pg/mL
- 100 nM IFN-gamma (pg/mL), SEB assay (human CD86): 7350 pg/mL
- 100 nM IFN-gamma (pg/mL), SEB assay (TIGIT): 7350 pg/mL

From US20250163127A1 (published 2025)
